Changes are numbered by the printed parent chain. Names may count otherwise.
What was measured:
[1] = biological target: Aspartate-β-semialdehyde dehydrogenase from Aspergillus fumigatus (A. fumigatus); assay: native gel or EMSA; native PAGE (3-12%), migration against molecular weight standards
[2] = biological target: Aspartate-β-semialdehyde dehydrogenase from Cryptococcus neoformans (C. neoformans); assay: as above
[3] = biological target: Aspartate-β-semialdehyde dehydrogenase from Streptococcus pneumoniae (Streptococcus pneumoniae); assay: as above
[4] = biological target: Aspartate-β-semialdehyde dehydrogenase from Streptococcus pneumoniae (Streptococcus pneumoniae); assay: AUC; sedimentation velocity, 4 °C, 20 mM Tris pH 8.0, 100 mM NaCl, all proteins at OD280 = 0.85, 50,000 rpm, Sedfit
[5] = biological target: T1, trASADH (T. rubrum aspartate-β-semialdehyde dehydrogenase) (Trichophyton rubrum, UniProt A0A080WMA9); assay: isothermal titration calorimetry; assay type: binding
T1 construct: gene TERG_03598; full length 362 aa, N-terminal 6xHis tag (pET-28a), E. coli; homotetramer
T1 sequence (A0A080WMA9 1-362): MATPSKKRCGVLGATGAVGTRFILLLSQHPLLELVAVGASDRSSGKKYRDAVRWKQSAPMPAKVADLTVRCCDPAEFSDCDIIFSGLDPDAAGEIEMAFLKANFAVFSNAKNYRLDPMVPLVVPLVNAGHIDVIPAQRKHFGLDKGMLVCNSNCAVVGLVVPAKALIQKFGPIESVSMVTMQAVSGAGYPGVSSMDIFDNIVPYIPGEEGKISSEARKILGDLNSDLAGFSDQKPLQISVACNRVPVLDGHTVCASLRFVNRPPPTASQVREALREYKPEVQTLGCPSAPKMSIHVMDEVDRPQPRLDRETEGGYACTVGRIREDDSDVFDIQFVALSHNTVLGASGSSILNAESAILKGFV

[6] = biological target: Aspartate-β-semialdehyde dehydrogenase from Vibrio cholerae (V. cholerae); assay: native gel or EMSA; native PAGE (3-12%), migration against molecular weight standards
[7] = biological target: the molecule itself; assay: SEC; Superose 6 PC3.2/30, 20 mM Tris-HCl pH 8.0, 100 mM NaCl, ~3 mg/ml, calibrated with mass standards (also the final Superdex 200 purification step)
[8] = biological target: the molecule itself; assay: cell-based or functional assay
[9] = biological target: the molecule itself; assay: AUC; sedimentation velocity, 4 °C, 20 mM Tris pH 8.0, 100 mM NaCl, all proteins at OD280 = 0.85, 50,000 rpm, Sedfit
[10] = biological target: the molecule itself; assay: native gel or EMSA; native PAGE (3-12%), migration against molecular weight standards

With “Aspartate-β-semialdehyde dehydrogenase from Aspergillus fumigatus (enzyme)” the stoichiometry N [1] was 4.

Molecule “Aspartate-β-semialdehyde dehydrogenase from Cryptococcus neoformans (enzyme)” has a stoichiometry N [2] of 4.

Work on “Aspartate-β-semialdehyde dehydrogenase from Streptococcus pneumoniae (enzyme)” yielded a stoichiometry N [3] of 2 and a stoichiometry N [4] of 2.

`NC(=O)c1ccc[n+]([C@@H]2O[C@H](COP(=O)(O)OP(=O)(O)OC[C@H]3O[C@@H](n4cnc5c(N)ncnc54)[C@H](OP(=O)(O)O)[C@@H]3O)[C@@H](O)[C@H]2O)c1` [NADP] gave a Kd [5] of 76.9 µM.

Work on “Aspartate-β-semialdehyde dehydrogenase from Vibrio cholerae (enzyme)” yielded a stoichiometry N [6] of 2.

B1: trASADH with mutation D196A (enzyme)
chain: SKKRCGVLGATGAVGTRFILLLSQHPLLELVAVGASDRSSGKKYRDAVRWKQSAPMPAKVADLTVRCCDPAEFSDCDIIFSGLDPDAAGEIEMAFLKANFAVFSNAKNYRLDPMVPLVVPLVNAGHIDVIPAQRKHFGLDKGMLVCNSNCAVVGLVVPAKALIQKFGPIESVSMVTMQAVSGAGYPGVSSMAIFDNIVPYIPGEEGKISSEARKILGDLNSDLAGFSDQKPLQISVACNRVPVLDGHTVCASLRFVNRPPPTASQVREALREYKPEVQTLGCPSAPKMSIHVMDEVDRPQPRLDRETEGGYACTVGRIREDDSDVFDIQFVALSHNTVLGASGSSILNAESAILKGFV
notes: Aspartate-β-semialdehyde dehydrogenase of Trichophyton rubrum BMU01672 (362 aa) with the point mutation D196A; parent as m1; source: E. coli B834(DE3) or Rosetta(DE3), purified (Ni-NTA, Hitrap Q, Superdex 200)
For B1, the “stoichiometry N” value [7] was 4 and the “enzymatic activity (kcat) at 25 °C, tetrameric single mutant” value (shortened to “enzymatic activity (kcat) at 25 °C”) [8] was 15.9 s⁻¹.

B2: trASADH with mutation F198A (enzyme)
chain: B1 chain with A192D, F194A
notes: Aspartate-β-semialdehyde dehydrogenase of Trichophyton rubrum BMU01672 (362 aa) with the point mutation F198A; parent as m1; also called trASADH-F198A; Mutant F198A; source: E. coli B834(DE3) or Rosetta(DE3), purified (Ni-NTA, Hitrap Q, Superdex 200)
For B2, the “enzymatic activity (kcat) at 25 °C” value [8] was 15.7 s⁻¹ and the “stoichiometry N” value [9] was 4.

B3: trASADH with mutation Y189A (enzyme)
chain: B1 chain with Y185A, A192D
notes: Aspartate-β-semialdehyde dehydrogenase of Trichophyton rubrum BMU01672 (362 aa) with the point mutation Y189A; parent as m1; also called trASADH-Y189A; source: E. coli B834(DE3) or Rosetta(DE3), purified (Ni-NTA, Hitrap Q, Superdex 200)
For B3, the “stoichiometry N” value [9] was 4.

B4: Aspartate-β-semialdehyde dehydrogenase from Trichophyton rubrum, wild type (enzyme)
chain: B1 chain with A192D
notes: Aspartate-β-semialdehyde dehydrogenase (ASADH) of Trichophyton rubrum BMU01672, wild type, 362 aa as printed; theoretical monomer 38.7 kDa; The apo crystal (4ZHS) was a selenomethionine derivative; Cloned in pET-28a; also called trASADH; ASADH; source: E. coli B834(DE3) or Rosetta(DE3), purified (Ni-NTA, Hitrap Q, Superdex 200)
In the case of B4, the “stoichiometry N” value [9] is reported as 4.

B5: trASADH with the triple mutation R309A-D196A-F198A (enzyme)
chain: B1 chain with F194A, R305A
notes: Aspartate-β-semialdehyde dehydrogenase of Trichophyton rubrum BMU01672 (362 aa) with R309A, D196A and F198A; parent as m1; also called trASADH R309A-D196A-F198A; dimeric triple mutant; source: E. coli B834(DE3) or Rosetta(DE3), purified (Ni-NTA, Hitrap Q, Superdex 200)
In the case of B5, the “stoichiometry N” value [9] is reported as 2.

B6: trASADH with mutation R309A (enzyme)
chain: B1 chain with A192D, R305A
notes: Aspartate-β-semialdehyde dehydrogenase of Trichophyton rubrum BMU01672 (362 aa) with the point mutation R309A; parent as m1; source: E. coli B834(DE3) or Rosetta(DE3), purified (Ni-NTA, Hitrap Q, Superdex 200)
For B6, the “stoichiometry N” value [7] was 4 and the “enzymatic activity (kcat) at 25 °C” value [8] was 12.9 s⁻¹.

B7: Aspartate-β-semialdehyde dehydrogenase from Candida albicans (enzyme)
chain: MSVKKAGVLGATGSVGQRFILLLSKHPEFEIHALGASSRSAGKKYKDAASWKQTETLPETEQDIVVQECKPEGNFLECDVVFSGLDADVAGDIEKSFVEAGLAVVSNAKNYRREKDVPLVVPIVNPEHIDVVENKVKQAVSKGGKKPGFIICISNCSTAGLVAPLKPLVEKFGPIDALTTTTLQAISGAGFSPGVSGMDILDNIVPYISGEEDKLEWETKKILGGVNAEGTEFVPIPESEMKVSAQCNRVPVIDGHTECISLRFANRPAPSVEDVKQCLREYECAASKLGCHSAPKQTIHVLDQPDRPQPRLDRDRDSGYGVSVGRIREDSLLDFKMVVLSHNTIIGAAGAGILIAEILKAKNII
notes: Aspartate-β-semialdehyde dehydrogenase of Candida albicans (fungal ASADH); The construct used for native PAGE is not described; also called caASADH; C. albicans ASADH
B7 was tested, and the “stoichiometry N” value [10] was 4.

— publication PMC4751538, “Structural Insights into the Tetrameric State of Aspartate-β-semialdehyde Dehydrogenases from Fungal Species” (Scientific Reports, 2016)
